In patent US20170218081A1:

Target: Bovine submaxillary mucin (bovine)
Test: SPR, BSM immobilised on CM5 chip

Substance: CC49.scFv
- Kd: 30 nM
